Test system: MS2 coat protein
Assay: apparent KD of MS2 coat protein; higher = weaker reporter binding
Conditions: Eterna round: R107
Experimental: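 RNA-MaP round R107: designed RNA switches with theophylline, tryptophan, arginine or FMN aptamers are transcribed on-chip within common flanks. They are titrated with SNAP-549-labelled MS2 coat protein in RNA-MaP buffer (100 mM Tris pH 7.5, 80 mM KCl, 4 mM MgCl2), without ligand or with the indicated ligand. Median apparent KD per design.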

[1] = input ligand: theophylline 20 uM
[2] = input ligand: tryptophan 2.4 mM
[3] = input ligand: theophylline 2 mM

Sequence	apparent KD of MS2 coat protein (input ligand: arginine 13.2 mM) [nM]	apparent KD of MS2 coat protein [1] [nM]	apparent KD of MS2 coat protein [2] [nM]	apparent KD of MS2 coat protein (input ligand: none) [nM]	apparent KD of MS2 coat protein [3] [nM]
UGACAUUGCUCAGAUACCAGACAUGAGGAUCACCCAUGUACCAAGGUAAAGAAAUAACGUGUCCCUUGGCAGCUGAGCAAUGUCU [TheoBX 1 #MS2Left #Theo2]	10.6	14.8	10.4		
UUUUACAUGAGGAUCACCCAUGUACAUGGGCGAGGACCGGUACGGCCGCCACUCGUGGGACCCACGGGCCCGCUUAGUGGGUACA [LarryB_001]	58.3	168	57.4	87.5	189
AAGACGGUCGGAAGGAGCGGUACAUGAGGAUCACCCAUGUACCUCUGGGCAUCCGUAGUGUGCCAGGUAGGUCGCCGAUUGCGGG [Esorbevege]	12.7	23.3	12.1	11.7	13.5
GACAUGAGGAUCACCCAUGUACCGCGAGAAGGAGCGCGGAUAAACGCAGGUAGGUCGCUCGUGGGCUUGUAUUCAAUCGUAAGCU [Anlaaranan]	48.2	187	80.7	108	207
CGGUUUGUGAUGGAUACCAGCAGAGAAAACGUUUAUCCUAACAUGAGGAUCACCCAUGUAUGCCCUUGGCAGCUGUUGUGGGCUG [8.U]	34.5	60.3	43.5		
AUACAUGAGGAUCACCCAUGUAUAGUUGAAGGAGCGACCAGAGGGUCAGGUAGGUCGCAGCGCAUGAGGUAAGCCCAUGUAUGCU [#1 Exclusion - Arginine A Attempt #16 (Inspired by Pi)]	22.7	44	17.2	22.8	70
ACAUGAGGAUCACCCAUGUGGCGACUUGAUACCAGACCCGCACUAGUCCCUUGGCAGCAACUACGUGUGGGACACCCAUGUGAAG [aszkullin]	17.5	23.9	20.2		
AACAUGAGGAUCACCCAUGUAAAACCGGUACGAGGACCGGUACGGCCGCCACUCGAAACAUGAGGAUCACCCAUGUAAUAAUAUU [Same State Trypophan A GF 21]	35.2	75	91.3	63.5	68.6
GGGUACAUCGCGGCCGCCACUCGUGUAAAUACAUGAGGAUCACCCAUGUCGAUGGAGACAUCGGCGAGGACCGGGUGAUGUACCG	43.1	54.2	11.5	47.5	53.5
AUAUUAAAGAGUGAUACCAGACUACAUGAGGAUCACCCAUGUUACAUUUAAAUAUCAUUUGUCCCUUGGCAGCACAUUAAGUACA [JR_Nu_ExcTheophyB_Sub022]	20.9	22.1	17.5		
GGUCCCGUCGGAAGGAGCGACAUGAGGAUCACCCAUGUCUCCCGUUAUGGGAGUUCUUUAGGUCAGGUAGGUCGCCGGCGGGAGC [#1 Exclusion - Arginine B Attempt #15 (Inspired by Omei)]	52.4	123	74	94.5	141
ACCUACACGGAGACGUGUAGGAGUAAUGAUACCAGCAUGGAGACAUGCCCUUGGCAGCGUUACAUGAGGAUCACCCAUGUACGUU [ETHA #3]	10.4	15.1	10.2		
AUUAAUAAUAUGUAGACGGCGGAGAAGAGACGAGGACCGGUACGGCCGCCACUCGUGUUAGUUAACAUGAGGAUCACCCAUGUUA [#09 Tryptophan A Same State]	9.55	17.5	11.9	11.8	12.6
UAAACUACACAUGAGGAUCACCCAUGUGGCCGAGGACCGGUACGGCCGCCACUCGUGUGUUAAUAAUAGAACUGCAAGGUUCUGU [Enindidiso]	75.6	228			272
AGGUAUGAUCCGGAUACCAGCGAACAUGAGGAUCACCCAUGUGACCUGAGAUAGGCUCUACGCCCUUGGCAGCCGCGAUCGCAGA [Same State Theophylline B GF11]	10.1	14.2	12.5	11.4	9.63
GGAUAGGACACGGCCGCCACUAGCUAGGAUACUAGCAACAUUUCCUCACAAGAGGAUCACCCUUGUAGGACCGGGUGUCCUAUCG	84.9	115	139	93.7	118
GGAGUAGGAAACUAUUCCAAUCCUCGUGAACGAGGACCGGUACGGCCGCCACUCGAUAAUUAAUAACAUGAGGAUCACCCAUGUA [Ex Tryptophan A 21]	36.6	80.4			89
UGACGAUACCUGGAUACCAGCGACAUGAGGAUCACCCAUGUAUGAGGAUCAGCCAUGUUAUGCCCUUGGCAGCCACGAAGGUCUU [CSCMULLIN]	28.9	55.4	33.1		
AAAAGAGGUGGAAGGAGCGGGAGACAUGAGGAUCACCCAUGUGAAGUGACGAAAGGAUCAUCCCAGGUAGGUCGCCAUGUCGAAA [csstmullin]	5.43	44.6	21.7	147	39

Sequence	apparent KD of MS2 coat protein (input ligand: arginine 13.2 mM) [nM]	apparent KD of MS2 coat protein [1] [nM]	apparent KD of MS2 coat protein [2] [nM]	apparent KD of MS2 coat protein (input ligand: none) [nM]	apparent KD of MS2 coat protein [3] [nM]
GGUACAUGAGGAUCACCCAUGUAUUAGUGCCGAGGACCGGUACGGCCGCCACUCGCUUCACAUGAGGAUCACCCAUGUGUCACUG [SSTA DOUBLE!!! :-D #14]	23.6	35.9			36.1
CGGACAUGAGGAUCACCCAUGUCGUCGACGCGAGGACCGGUACGGCCGCCACUCGCAUGCCAAUGAGCGCAUGCGGCCUGGGUAU [Exclusion Tryp A GF5]	15.8	29		19.5	21
GCACUACAUGAGGAUCACCCAUGUGCAGAUACCAGAGGUGUAUGCCUCCCUUGGCAGCUGCGUCGCUCUGGCAGCUUGUGGGUUG [Same State Theophylline A GF18]	40.3	117	81.5		
UAUGUCGCCGAAGAUACCAGCCUGGCAAGCAACAUGAGGAUCACCCAUGUAAUUACUUAUGGCCCUUGGCAGCUUCAAAUAGAGC [theeternabot_sameState_MS2_Theo_B_42]	10.8	15.5	12.4		
AGGUGACAUGAGGAUCACCCAUGUGGCUUACGAGGACCGGUACGGCCGCCACUCGGUGUGACCUCCGCAUUCACAUAAUAAUCUU [Rilala]	37.4	131			126
AGUUACUCGAACAUGGUUGACGAGUGGCAACGAGGACCGGUACGGCCGCCACUCGAAUAAACAUGAGGAUCACCCAUGUACAAAU [T''-M'-T'-T-MS2 - Design 10.b]	61.9	148			160
GUCUGAGUCUGAAGGAGCGACAUGAGGAUCACCCAUGUCUCCCGUUAUGGGAGUUCCUUAGGUCAGGUAGGUCGCAGACUCAGAC [#1 Exclusion - Arginine B Attempt #26 (Inspired by Omei)]	60.9	139	108	145	172
UCGAAUGCGGCGGCCGCCACUCGCGGAUAACGAUAGCUUAACAUGAGGAUCACCCAUGUGUCAUGGAGGACCGGGCCCAUACGGU [kmkmullin]	13.5	23.2	14.3	17	18.7
AUACAUGAGGAUCACCCAUGUUAUAGUGAAGGAGCGACAUUUAUGUCAGGUAGGUCGCACUGUUGUUUAAUGAUUCUUGGAUCUU [#20 Exclusion - Arginine A]	16	18.9	15.1	13.3	14.1
GGAUCAGGAUCGGCCGCCACUGAUAGUGAUCCAACGACAUGAGGAUCACCCAUGUACAUUUUAAUCAGGACCGGGAUCAAGUUCC [Tryp B Ex t7]	40	189			327
CCUGCGUUUCUUUUCUUUCGCAGGAAUGAUACCAGUAGGGAAACCUACCCUUGGCAGCAUGGGACAUGAGGAUCACCCAUGUAAU [SSThA NP+V+V2 #2]	255	346	408		
CUUGUGGGCGGAAGGAGCGCGAUUACAUAACAUGAGGAUCACCCAUGUAAGAAAUUAUUCAUGCAGGUAGGUCGCCGUUCGUGGG [Same State Arginine B GF9]	24.8	30.9	25.2	23.8	24.1
UCGCACAUGAGGAUCACCCAUGUACUAGAUACCAGUGACGCGGUGCACCCUUGGCAGCUGGUGCUGAGUGAUGGUUCCCUCGGCA [Exclusion Theophylline A GF8]	53.5	137	112		
UCCUCCUCCGCAAGGAGGAGGAGUUGCGAUACCAGCACGGAAACGUGCCCUUGGCAGCGCACAUGAGGAUCACCCAUGUCAUGUU [#1 Exclusion - Theophylline A Attempt #9 (HarryS)]	18.7	23.8	16.3		
AAUAACAUGAGGAUCACCCAUGUAAAAGAUACCAGAGUGAUGAUCCUCCCUUGGCAGCUUAACGCUGAUUGAUUACAAUCAGCGA [TheoAS 3 #Tail #MS2BeforeAptamer #BothOrNeither]	46.4	128	67.1		
GCCUGGGAUACGGCCGCCACUACAUGAGGAUCACCCAUGUAAUAUUUAUUAGAAGAGAGGGUAUGUAGGACCGGGUAAGGAAGGC [e-trypB-0]	14.3	24.9	26	15.8	22.5
GGAAGGACAGUUGAUACCAGUUUCAAAGGCGGUAAUCACUACAUGAGGAUCACCCAUGUCAACCCUUGGCAGCAAUAGACCGUGG [theeternabot_exclusion_MS2_Theo_B_6]	24	28.1	19.2		
ACCCUAGCGAUCGCUCGCUAGGGUGCGGAUACCAGCGAGGUCCAUCGCCCUUGGCAGCCGAACAUGAGGAUCACCCAUGUCGGUA [#1 Same State - Theophylline A Attempt #19 (HarryS)]	10.1	11.6	10.4		

Source: the supplement of paper PMC9170038
